Data taken from US20230192900A1 (published 2023).

Legend:
human CD9 = biological target: T1, human CD9 (human, UniProt P21926 2-228); test: selection on cells expressing full-length CD9; method not described
T1 construct: The cells expressing full-length CD9 that were used to select the antibodies are not described; In the functional assays CD9 stands on human PBMC; also called full-length cell-expressed CD9; Tetraspanin-29
T1 sequence: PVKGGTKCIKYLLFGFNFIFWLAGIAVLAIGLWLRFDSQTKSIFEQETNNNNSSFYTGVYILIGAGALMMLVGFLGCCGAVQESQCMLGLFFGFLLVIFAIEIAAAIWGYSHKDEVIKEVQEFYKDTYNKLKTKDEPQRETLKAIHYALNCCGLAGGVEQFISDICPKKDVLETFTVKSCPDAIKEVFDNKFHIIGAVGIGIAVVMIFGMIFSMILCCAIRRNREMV

[1] = biological target: T2, recombinant human CD9 long extracellular loop 2-human Fc fusion protein (10015-CD, R&D Systems) (human, UniProt P21926 112-195); test: biolayer interferometry (Octet RED384), CD9 loop 2-human Fc captured on AHC biosensors, Fab at 10 µg/mL
T2 construct: Bought reagent; also called CD9-loop2; long extracellular loop 2 peptide; not shown: human Fc
T2 sequence: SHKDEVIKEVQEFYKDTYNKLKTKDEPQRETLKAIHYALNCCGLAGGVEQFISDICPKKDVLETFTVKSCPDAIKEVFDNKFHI
From the text: CD9 contains two extracellular loops: a short extracellular loop (loop 1: 34-55 in SEQ ID NO:2) and a long extracellular loop (loop 2: 112-195 in SEQ ID NO:2). We used biolayer interferometry to assess binding of our panel of CD9 Fab-Y antibodies (selected for their ability to bind full-length cell-expressed CD9) to the long extracellular loop 2 peptide, using the Octet® RED384 System (ForteBio) with Anti-hlgG Fc Capture (AHC) Biosensors (ForteBio) at room temperature. Firstly, an array of 8 sensors was dipped in kinetics buffer (PBS 0.1%, BSA 0.02%, Tween 20) for 120 seconds to provide a baseline signal. Sensors were then moved to wells containing 200 μl of recombinant human CD9 long extracellular loop 2-human Fc fusion protein (10015-CD, R&D Systems®) at 2 μg/mL in kinetics buffer to immobilize the protein to the biosensor (100 seconds), followed by a second baseline step (180 seconds) in kinetics buffer to equilibrate the biosensors now coated with the CD9 long extracellular loop 2-human Fc fusion protein. No detachment of the peptide was observed during this step. Sensors were then dipped in wells containing one of the anti-CD9 Fab (10 μg/mL) to evaluate association of each antibody to CD9-loop2 (120 seconds), followed by dissociation in kinetics buffer (600 seconds). Anti-CD137 Fab-Y (11175) was used as negative control during the antibody association step. […]

binding result (human CD9): binds | binding result [1]: binds
B1: anti-CD9 Fab-Y antibody 7272 (Fab, V domains shown)
VH: QSLEESGGRLVTPGTPLTLTCTVSGFSLSSYAMGWVRQAPGKGLEWIGAIGSITATGYARWAKGRFSISKTSTTVDLKMTSPTTEDTATYFCAREIYVGSAYAFDIWGPGTLVTVSS
VL: AYDMTQTPASVEVAVGDTVTIKCQASQSISNYLAWYQQKPGQPPKLLIYLASTLASGVPSRFKGSGSGTEFTLTISDLECADAATYYCQQGYIDNVNKGFGGGTEVVVK
notes: also called VR7272
